Key:
[1] = target: recombinant mouse LIF protein (mouse, UniProt P09056 24-203); assay: ELISA, mouse LIF coated at 1 µg/mL, A450
Procedure: (§1) The recombinant mouse LIF protein (purchased from ACRO Biosystems) was diluted to 1 μg/mL, and was coated on the enzyme label plate, 100 μL of protein was added into every well, and incubated overnight in 4° C. The enzyme label plates were taken out next day, and the liquid was discarded, and were washed with PBST three times and blocked with 2% BSA in PBS for 1 h at room temperature, then washed with PBST three times, and added anti-human LIF antibodies 38E10E1C11, 5D8 and P36-033 at different concentrations and incubated for 1 h at room temperature. The liquid was discarded, and the plates were washed with PBST four times. The plates were added with HRP-labeled goat anti-mouse Fab antibody or goat anti-human FC antibody and incubated for 1 h at room temperature. Then the liquid was discarded, and the plates were washed four times with PBST and incubated with TMB colored solution in 10 minutes at room temperature. Stop color development by adding 2 mol/L H₂SO₄, and the absorption value at 450 nm is quantitated using an automated plate photometer, and the results were shown in FIG. 2.

human OSM = target: T1, human OSM (human, UniProt P13725 26-221, limits assumed); assay: ELISA, human OSM coated at 1 µg/mL, HRP goat anti-mouse Fab, A450
T1 sequence (looked up): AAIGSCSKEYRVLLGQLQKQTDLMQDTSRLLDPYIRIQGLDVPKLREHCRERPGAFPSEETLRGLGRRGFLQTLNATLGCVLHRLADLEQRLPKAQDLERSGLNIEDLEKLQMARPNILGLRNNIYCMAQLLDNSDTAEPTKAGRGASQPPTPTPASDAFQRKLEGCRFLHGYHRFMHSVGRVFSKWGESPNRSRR
Procedure: After washed four times with PBST, HRP-labeled goat anti-mouse Fab secondary antibodies were added and incubated at room temperature for 1 h. After washed four times with PBST, TMB colored solution was added and color developing for 10 min at room temperature. The absorption value at 450 nm was read by the enzyme maker. The data were analyzed and plotted using Origin pro 9 software.

human LIF protein [2] = target: T2, human LIF protein (human, UniProt P15018 23-202); assay: ELISA, human LIF coated at 1 µg/mL, A450
T2 construct: Bought recombinant protein (Sino Biological / Yiqiao Shenzhou 14890-HNAH) in most assays; also called recombinant human LIF protein; rhLIF
Procedure: as §1, with “recombinant human” for “recombinant mouse”, “protein” for “protein (purchased from ACRO Biosystems)”, “μg/mL,” for “μg/mL, and”, “of the” for “of”, “FIG. 1.” for “FIG. 2.”

[3] = target: T3, Mut3 heterozygous LIF protein (human LIF with residues 182-202 of …, UniProt P15018 23-201, limits assumed); assay: western blot of 293T culture supernatants, primary antibody 38E10E1C11, HRP goat anti-mouse Fab
T3 construct: Secreted into the supernatant of transfected 293T cells; also called Mut3 protein

[4] = target: T4, Mut4 heterozygous LIF protein (human LIF with residues 166-202 of …, UniProt P15018 23-201, limits assumed); assay: as above
T4 construct: Secreted into the supernatant of transfected 293T cells; also called Mut4 protein

human LIF protein [5] = target: T2, human LIF protein; assay: KinExA 4000, solution equilibrium
Procedure: The affinity of the purified monoclonal antibodies to the recombinant human LIF protein was determined by KinExA 4000. 200 mg PMMA hard beads were added with 30 μg of the 38E10E1C11 antibody and additional adding coating solution to 1 mL. The buffer composition is 1 xPBS, pH 7.4, 0.02% NaN3. And make sure that the beads were completely suspended in the solution, and rotated for 2 h at room temperature. The beads were naturally settled or quickly centrifuged at low speed. The supernatant was removed and the beads were blocked with PBS containing 1% BSA. 15 mL of 300 pM antigen solution and 15 mL of 240 pM Ab2 (38E10E1C11) solution were prepared. 0.6 mL of 300 pM antigen and 0.6 mL of 240 pM antibody Ab2 (38E10E1C11) were put into different sample tubes separately. The samples in the two tubes were well mixed and put together into one tube, the concentration of the antigen was 150 pM and the concentration of antibody Ab2 (38E10E1C11) was 120 pM at this time, and the solution was placed in the corresponding position in the tube holder. […] Each group was added with 1 μg/L1 Streptavidin Protein, DyLight 650 Solution, and was detected on machine set to incubate for 24 hours. In the KinExatm Pro software, the equilibrium dissociation constant (Kd) for n-curve analysis was calculated by the unknown ligand model, and the results are shown in FIG. 4.

human LIF protein [6] = target: T2, human LIF protein; assay: competition ELISA, LIF coated, competitor LIFR-Fc 0.6125 ug/mL detected with anti-human Fc
human LIF protein [7] = target: T2, human LIF protein; assay: competition ELISA: human LIF coated at 1 µg/mL, LIFR-Fc 0.6125 µg/mL added together with the antibody, A450
Procedure: The recombinant human LIF protein was coated on the enzyme label plate at a concentration of 1 μg/mL, LIFR protein (expressed fusedly with human FC) at a concentration of 0.6125 μg/mL was added (50 μL/well), and the anti-human LIF antibodies 38E10E1C11, P36-033 and 38E10E1C11R which is recombinantly expressed by CHO cells (SEQ ID NOs: 41 and 43) at different concentrations simultaneously were added separately (50 μL/well) and incubated for 2 h at room temperature. After washed four times with PBST, incubated with HRP-labeled goat anti-mouse FC secondary antibody for 1 h at room temperature. Then the plates were washed four times with PBST and added with TMB coloured solution in for 10 minutes. The absorption value at 450 nm is quantitated using an enzyme-labelling measuring instrument, and the data was analyzed and plotted using Origin pro 9 software.

B1: 38E10E1C11 antibody (antibody, mouse IgG1, kappa)
heavy: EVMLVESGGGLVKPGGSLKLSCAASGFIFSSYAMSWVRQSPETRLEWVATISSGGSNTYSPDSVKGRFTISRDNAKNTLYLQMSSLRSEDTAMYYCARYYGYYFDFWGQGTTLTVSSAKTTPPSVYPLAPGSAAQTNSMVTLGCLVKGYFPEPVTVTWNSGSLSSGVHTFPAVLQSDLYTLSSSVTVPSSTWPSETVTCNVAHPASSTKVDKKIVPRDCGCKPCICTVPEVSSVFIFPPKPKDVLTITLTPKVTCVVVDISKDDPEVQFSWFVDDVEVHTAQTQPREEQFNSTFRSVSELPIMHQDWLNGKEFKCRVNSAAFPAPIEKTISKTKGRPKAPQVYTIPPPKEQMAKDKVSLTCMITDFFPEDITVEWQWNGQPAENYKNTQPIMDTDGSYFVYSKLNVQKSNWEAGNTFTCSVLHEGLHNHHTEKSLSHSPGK
light: DIHMTQSPASLSASVGETVTITCRASENIYSYLAWYQQKQGKSPQLLVYNAKTLAEGVPSRFSGSGSGTQFSLKINSLQPEDFGSYYCQHHYVTPLTFGAGTKLELKRADAAPTVSIFPPSSEQLTSGGASVVCFLNNFYPKDINVKWKIDGSERQNGVLNSWTDQDSKDSTYSMSSTLTLTKDEYERHNSYTCEATHKTSTSPIVKSFNRNEC
notes: Mouse IgG1, kappa light chain; also called 38E10E1C11 mAb; mAb38E10E1C11
[1]
  binding result: no binding (tested: 100 µg/mL (log 2))
Human OSM
  binding result: no binding (tested: 25 ug/ml)
Human LIF protein [2]
  EC50 (read off the curve): ~0.05 µg/mL
[3]
  binding result: binds
[4]
  binding result: no binding
Human LIF protein [5]
  Kd: 4.52 pM
Human LIF protein [6]
  IC50: 0.074 µg/mL
Human LIF protein [7]
  IC50 (read off the curve): ~0.1 µg/mL
